Here are results for seven molecules from US5856135, “Reshaped human antibody to human interleukin-6” (Chugai Seiyaku Kabushiki Kaisha, dated 1999).

The target in assay [1] is T1, recombinant human IL-6 (human, UniProt P05231). Nature of the assay: ELISA, told in the description of the chimeric antibody. The procedure: (§1) An ELISA plate for antigen-binding assay was prepared as follows. A 96-well plate was coated with mouse monoclonal antibody MH166 recognizing a different epitope of human IL-6 from that recognized by SK2 (Matsuda, T. et al., Eur. J. Immunol. 18, 951–956, 1988), and after blocking, recombinant human IL-6 was added thereto. A sample of the chimeric SK2 antibody was sequentially diluted, added to each well, and then an alkaline phosphatase-conjugated goat anti-human IgG antibody (Sigma) was added thereto. After incubation and washing, substrate was added, and absorbance at 405 nm was measured.
For orientation: ELISA stands for enzyme-linked immunosorbent assay.

In assay [2] the target is T2, biotinylated IL-6 (human, UniProt P05231, biotinylated (site not stated)). Nature of the assay: binding-inhibition ELISA, IL-6 to IL-6R (FIG. 10), reference. The procedure: (§2) For binding-inhibition assay, an ELISA plate was prepared as follows. A 96-well plate was coated with mouse monoclonal antibody, MT-18 (Hirata, Y. et al., J. Immunol., 143, 2900–2907, 1989), specific to human IL-6 receptor (IL-6R), and, after blocking, soluble recombinant human IL-6R (SR344) (Yasukawa, K. et al., J. Biochem. 108, 673–676, 1990) was added thereto. A sample of this chimeric SK2 antibody was sequentially diluted, and added with biotinylated IL-6 to each well, and after adding an alkaline phosphatase-conjugated streptavidin thereto, absorbance at 405 nm was measured.

Assay [3] concerns the target T1, recombinant human IL-6. In words: antigen-binding ELISA (FIG. 8). The method, then:
as §1

The target of assay [4] is T1, recombinant human IL-6. Nature of the assay: antigen-binding ELISA (FIG. 9). The procedure: as §1
For assay [5], the target named is T2, biotinylated IL-6. Nature of the assay: binding-inhibition ELISA, IL-6 to IL-6R (FIG. 10). The procedure:
as §2

B1: chimeric SK2 antibody (antibody, V domains shown)
VH: QVTLKESGPGILQPSQTLSLTCSFSGFSLNTSGMTVGWIRQPSGKGLEWLAHIWWNDDKYYNPALKGRLTISKDTSNNQVFLKIASVVTADTATYYCARMEDYDEAMDYWGQGTSVTVSS
VL: DIQMTQSPASLSVSVGETVTITCRASENIYSNLAWYQQKQGKSPQLLVYAATYLADGVPSRFSGSGSGTQYSLKINSLQSEDFGSYYCQHFWGTPPFGSGTKLEIK
Consider B1, for which the binding result in assay [1] and in assay [2] was “binds” in each case.

B2: antibody comprising reshaped L chain version "a" and chimeric H chain (antibody, V domains shown)
VH: QVTLKESGPGILQPSQTLSLTCSFSGFSLNTSGMTVGWIRQPSGKGLEWLAHIWWNDDKYYNPALKGRLTISKDTSNNQVFLKIASVVTADTATYYCARMEDYDEAMDYWGQGTSVTVSS
VL: DIQMTQSPSSLSASVGDRVTITCRASENIYSNLAWYQQKPGKAPKLLIYAATYLADGVPSRFSGSGSGTDFTFTISSLQPEDIATYYCQHFWGTPPFGQGTKVEIK
On to B2, for which, in assay [3], the binding result is recorded as “binds”.

B3: antibody comprising reshaped L chain version "b" and chimeric H chain (antibody, V domains shown)
VH: QVTLKESGPGILQPSQTLSLTCSFSGFSLNTSGMTVGWIRQPSGKGLEWLAHIWWNDDKYYNPALKGRLTISKDTSNNQVFLKIASVVTADTATYYCARMEDYDEAMDYWGQGTSVTVSS
VL: DIQMTQSPSSLSASVGDRVTITCRASENIYSNLAWYQQKPGKAPKLLIYAATYLADGVPSRFSGSGSGTDYTFTISSLQPEDIATYYCQHFWGTPPFGQGTKVEIK
Turning to B3, the binding result in assay [3] is “binds”.

B4: reshaped human SK2 antibody, L chain version "a" and H chain version "a" (antibody, V domains shown)
VH: QVTLRESGPALVRPTQTLTLTCTFSGFSLSTSGMTVGWIRQPPGEALEWLAHIWWNDDKYYNPALKGRLAVSKDTSKNQVVLSMNTVGPGDTATYYCARMEDYDEAMDYWGQGILVTVSS
VL: DIQMTQSPSSLSASVGDRVTITCRASENIYSNLAWYQQKPGKAPKLLIYAATYLADGVPSRFSGSGSGTDFTFTISSLQPEDIATYYCQHFWGTPPFGQGTKVEIK
For the molecule B4, the binding result in assay [4] and in assay [5] was “binds” in each case.

B5: reshaped human SK2 antibody, L chain version "b" and H chain version "b" (antibody, V domains shown)
VH: QVTLRESGPALVRPTQTLTLTCTFSGFSLNTSGMTVGWIRQPPGEALEWLAHIWWNDDKYYNPALKGRLAVSKDTSKNQVVLSMNTVGPGDTATYYCARMEDYDEAMDYWGQGILVTVSS
VL: DIQMTQSPSSLSASVGDRVTITCRASENIYSNLAWYQQKPGKAPKLLIYAATYLADGVPSRFSGSGSGTDYTFTISSLQPEDIATYYCQHFWGTPPFGQGTKVEIK
On to B5, for which the binding result in assay [4] was “binds”.

B6: reshaped human SK2 antibody, L chain version "a" and H chain version "b" (antibody, V domains shown)
VH: QVTLRESGPALVRPTQTLTLTCTFSGFSLNTSGMTVGWIRQPPGEALEWLAHIWWNDDKYYNPALKGRLAVSKDTSKNQVVLSMNTVGPGDTATYYCARMEDYDEAMDYWGQGILVTVSS
VL: DIQMTQSPSSLSASVGDRVTITCRASENIYSNLAWYQQKPGKAPKLLIYAATYLADGVPSRFSGSGSGTDFTFTISSLQPEDIATYYCQHFWGTPPFGQGTKVEIK
For the molecule B6, the binding result in assay [4] and in assay [5] was “binds” in each case.

B7: reshaped human SK2 antibody, L chain version "b" and H chain version "a" (antibody, V domains shown)
VH: QVTLRESGPALVRPTQTLTLTCTFSGFSLSTSGMTVGWIRQPPGEALEWLAHIWWNDDKYYNPALKGRLAVSKDTSKNQVVLSMNTVGPGDTATYYCARMEDYDEAMDYWGQGILVTVSS
VL: DIQMTQSPSSLSASVGDRVTITCRASENIYSNLAWYQQKPGKAPKLLIYAATYLADGVPSRFSGSGSGTDYTFTISSLQPEDIATYYCQHFWGTPPFGQGTKVEIK
For B7, the binding result in assay [4] and in assay [5] was “binds” in each case.
